Experimental data taken from US20170304442A1 (SORRENTO THERAPEUTICS, published 2017).

How the values were obtained:
[1] = biological target: T1, recombinant mouse WISP1/His (mouse, UniProt O54775 23-367); assay: ELISA screening
T1 construct: also called murine WISP1; mWISP1; not shown: His tag
T1 sequence (looked up): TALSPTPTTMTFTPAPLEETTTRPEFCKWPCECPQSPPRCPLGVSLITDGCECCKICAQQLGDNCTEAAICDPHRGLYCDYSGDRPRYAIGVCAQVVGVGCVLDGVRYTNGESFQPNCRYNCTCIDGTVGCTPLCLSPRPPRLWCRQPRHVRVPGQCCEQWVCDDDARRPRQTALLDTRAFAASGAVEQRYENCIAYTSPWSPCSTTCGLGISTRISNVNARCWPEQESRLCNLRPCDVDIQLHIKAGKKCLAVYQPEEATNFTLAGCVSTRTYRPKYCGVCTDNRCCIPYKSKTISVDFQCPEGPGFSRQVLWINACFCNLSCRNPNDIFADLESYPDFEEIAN

[2] = biological target: T2, recombinant human WISP1/His (human, UniProt O95388 23-367); assay: ELISA screening
T2 construct: also called hWISP1; recombinant human WISP1 protein; not shown: His tag
T2 sequence (looked up): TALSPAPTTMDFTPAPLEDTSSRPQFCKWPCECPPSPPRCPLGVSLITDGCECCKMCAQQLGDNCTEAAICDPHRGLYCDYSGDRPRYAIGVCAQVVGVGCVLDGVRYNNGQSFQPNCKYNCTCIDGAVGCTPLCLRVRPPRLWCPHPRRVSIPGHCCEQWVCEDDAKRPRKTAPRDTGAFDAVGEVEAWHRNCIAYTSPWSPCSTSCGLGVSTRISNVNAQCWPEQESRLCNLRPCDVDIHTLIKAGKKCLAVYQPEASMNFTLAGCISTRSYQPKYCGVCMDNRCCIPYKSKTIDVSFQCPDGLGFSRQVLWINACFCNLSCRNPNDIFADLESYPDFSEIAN

B1: WIr2B9 (antibody, V domains shown)
VH: QVQLVQSGAEVKKPGSSVKVSCKASGGTFNNYNINWVRQAPGQGFEWMGRIVPMLGVPKYAQKFQGRVTISADMSTSTAYMELRSLRSDDTAMYYCARGEDLDPWGQGTLVTVS
VL: SYELMQPASVSGSPGQSITISCTGTSSDVGGYNYVSWYQQHPGKAPKLMIYDVSKRPSGVSNRFSGSKSGNTASLTISGLQAEDEADYYCSSYTSSSPYVFGTGTKVTVL
notes: Fully human IgG; also called Wlr2B9
B1: binds [1]; binds [2].

B2: WIr2D10 (antibody, V domains shown)
VH: QVQLVESGGGVVQPGRSLRLSCGASGFTFSRFAMHWVRQAPGKGLEWVTVTSFDGSEIYYADSVKGRFTISRDNSKNTLYLQMNSLRVDDTAVYFCARDALGSIDYWGQGTLVTVSS
VL: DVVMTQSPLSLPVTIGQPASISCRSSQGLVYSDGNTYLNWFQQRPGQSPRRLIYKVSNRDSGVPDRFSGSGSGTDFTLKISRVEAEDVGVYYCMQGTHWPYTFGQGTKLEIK
notes: Fully human IgG; also called Wlr2D10
B2: binds [1]; binds [2].

B3: WIr2D3 (antibody, V domains shown)
VH: QVQLVQSGGGLVQPGRSLRLSCAASGFTFSSYGMHWVRQAPGKGLEWVAVISYDGSNKYYADSVKGRFTISRDNSKNTLYLQMNSLRAEDTAVYYCFDDYVDYWGQGTLVTVSS
VL: DIVMTQTPSSLSASVGDRVTITCRASQGISNYLAWYQQKPGKAPKLLIYAASSLQSGVPSRFSGSGSGTDFTLTISSLRPEDFATYYCLQDYSFPLTFGGGTKVEIK
notes: Fully human IgG; also called Wlr2D3
B3: binds [1]; binds [2].

B4: WIr2D5 (antibody, V domains shown)
VH: EVQLVESGAEVKKPGASVKVSCKASGYTFTSYGISWVRQAPGQGLEWMGWISAYNGNTNYAQKLQGRVTMTTDTSTSTAYMELRSLRSDDTAVYYCARVRVFEYSSLMDVWGQGTTVTVSS
VL: AIQMTQSPSSLSASVGDRVTITCQASQDISNYLNWYQQKPGKAPKLLIYDASNLETGVPSRFSGSGSGTDFTFTISSLQPEDIATYYCQQHDNLPITFGQGTRLEIK
notes: Fully human IgG; also called Wlr2D5
B4: binds [1]; binds [2].

B5: WIr2D9 (antibody, V domains shown)
VH: QVQLVQSGAEVKKPGASVKVSCKVSGYTLTELSMHWVRQAPGKGLEWMGGFDPEDGETIYAQKFQGRVTMTEDTSTDTAYMELSSLRSEDTAVYYCATEGWFGELSPVYWGQGTLVTVSS
VL: AIQLTQSPSSLSASVGDRVTITCRASQDIRNDLGWYQQKPGRAPQRLIYTTSTLQSGVPSRFSGSGSGTEFTLTISSLQPEDFATYYCLQHNTYPWTFGQGTRLEIK
notes: Fully human IgG; also called Wlr2D9
B5: binds [1]; binds [2].

B6: WIr2E4 (antibody, V domains shown)
VH: QVQLQQSGAEVKKPGASVKVSCKVSGYTLTELSMHWVRQAPGKGLEWMGGFDPEDGETIYAQKFQGRVTMTEDTSTDTAYMELSSLRSEDTAVYYCATDRWWERTTWGAFDIWGQGTMVTVSS
VL: QSVLTQPASVSGSPGQSITISCIGTGSAAVSWYQQHPGKAPKLIIYDVNNRPSGVSARFSGSKSDNTASLTISGLQAEDEGDYYCSTYGAGSTWVFGGGTKLTVL
notes: Fully human IgG; also called Wlr2E4
B6: binds [1]; binds [2].

B7: WIr2G7 (antibody, V domains shown)
VH: QVQLVQSGAEVKKPGASVKVSCKASGYTFTSYDINWVRQATGQGPEWLGWLNPGSGKTGNAQNFQGRVFMTWDTSKDTAYMEMSSLRSDDTAVYYCARNLDYWGQGTLVTVSS
VL: DIVMTQTPLSLPVTLGQPASISCRSSQSLVYSDGNTYLSWLQQRPGQPPRVLINQISNRFSGVPDRFSGSGAGTDFTLKISRVEAEDVGVYYCMQATQFPVTFGGGTKVEIK
notes: Fully human IgG; also called Wlr2G7
B7: binds [1]; binds [2].

B8: WIr2G8 (antibody, V domains shown)
VH: QVQLVQSGAEVQKPGASVKVSCKASGYRFINNDIHWVRQATGQGLEWMGWMDPNNGKTGYAQKFQGRVTMTRDTSISTAYMELSSLRSEDTGVYYCVRGIIAAAGGGWGQGTLVTVSS
VL: DVVMTQSPSTLSASVGDRATITCRASQSVDTWLAWYQQKPGKAPHVLIYKASNLNSGVPSRFSGSGSGTEFTLTISSLQPDDFATYYCQQYKTWWTFGQGTKVEIK
notes: Fully human IgG; also called Wlr2G8
B8: binds [1]; binds [2].
